{
  "source": "paper PMC5779224",
  "about": "(2017)",
  "binders": {"B1": {"name": "E-cadherin (aa 734–884) (domain or fragment)", "chain": "not shown"}},
  "key": {"[1]": {"molecular_target": "T1, AnkB_MBD (AnkB ANK repeats only, aa 28–827) (human, UniProt Q01484-2 28-827)", "T1 chain": "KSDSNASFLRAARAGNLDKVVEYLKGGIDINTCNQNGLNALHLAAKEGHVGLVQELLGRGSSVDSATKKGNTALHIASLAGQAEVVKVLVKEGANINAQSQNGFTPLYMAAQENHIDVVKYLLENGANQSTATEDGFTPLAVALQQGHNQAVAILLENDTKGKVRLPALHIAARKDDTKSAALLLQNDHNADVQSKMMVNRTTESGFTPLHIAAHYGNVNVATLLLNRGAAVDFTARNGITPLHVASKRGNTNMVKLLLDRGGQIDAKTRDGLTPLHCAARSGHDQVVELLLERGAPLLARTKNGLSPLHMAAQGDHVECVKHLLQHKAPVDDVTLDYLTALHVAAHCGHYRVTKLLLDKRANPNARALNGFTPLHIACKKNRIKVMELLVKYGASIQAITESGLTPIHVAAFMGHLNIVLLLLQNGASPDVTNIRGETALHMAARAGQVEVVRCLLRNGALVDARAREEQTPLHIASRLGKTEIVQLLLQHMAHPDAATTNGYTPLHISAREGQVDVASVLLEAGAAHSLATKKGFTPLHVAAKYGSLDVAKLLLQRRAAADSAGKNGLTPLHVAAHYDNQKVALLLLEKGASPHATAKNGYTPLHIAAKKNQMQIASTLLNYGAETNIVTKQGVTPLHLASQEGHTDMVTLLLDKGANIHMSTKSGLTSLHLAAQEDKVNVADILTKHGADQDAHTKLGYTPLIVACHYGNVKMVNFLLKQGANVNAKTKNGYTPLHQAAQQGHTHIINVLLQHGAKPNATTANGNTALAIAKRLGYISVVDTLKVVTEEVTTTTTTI", "test": "ITC"}, "[2]": {"molecular_target": "T2, AnkB_MBD R1 charge reversal mutant ('EAAE') (human, UniProt Q01484-2 28-827, 37RAAR40 to 37EAAE40)", "T2 sequence": "T1 chain with R10E, R13E", "test": "FP"}, "[3]": {"molecular_target": "T1, AnkB_MBD (AnkB ANK repeats only, aa …)", "test": "ITC"}, "AnkB_MBD Asn595Ala": {"molecular_target": "T3, AnkB_MBD Asn595Ala (human, UniProt Q01484-2 28-827, Asn595Ala)", "T3 sequence": "T1 chain with N568A", "test": "ITC"}, "[4]": {"molecular_target": "T4, AnkB 28–847 (MBD + partial AI-c) (human, UniProt Q01484-2 28-847)", "T4 chain": "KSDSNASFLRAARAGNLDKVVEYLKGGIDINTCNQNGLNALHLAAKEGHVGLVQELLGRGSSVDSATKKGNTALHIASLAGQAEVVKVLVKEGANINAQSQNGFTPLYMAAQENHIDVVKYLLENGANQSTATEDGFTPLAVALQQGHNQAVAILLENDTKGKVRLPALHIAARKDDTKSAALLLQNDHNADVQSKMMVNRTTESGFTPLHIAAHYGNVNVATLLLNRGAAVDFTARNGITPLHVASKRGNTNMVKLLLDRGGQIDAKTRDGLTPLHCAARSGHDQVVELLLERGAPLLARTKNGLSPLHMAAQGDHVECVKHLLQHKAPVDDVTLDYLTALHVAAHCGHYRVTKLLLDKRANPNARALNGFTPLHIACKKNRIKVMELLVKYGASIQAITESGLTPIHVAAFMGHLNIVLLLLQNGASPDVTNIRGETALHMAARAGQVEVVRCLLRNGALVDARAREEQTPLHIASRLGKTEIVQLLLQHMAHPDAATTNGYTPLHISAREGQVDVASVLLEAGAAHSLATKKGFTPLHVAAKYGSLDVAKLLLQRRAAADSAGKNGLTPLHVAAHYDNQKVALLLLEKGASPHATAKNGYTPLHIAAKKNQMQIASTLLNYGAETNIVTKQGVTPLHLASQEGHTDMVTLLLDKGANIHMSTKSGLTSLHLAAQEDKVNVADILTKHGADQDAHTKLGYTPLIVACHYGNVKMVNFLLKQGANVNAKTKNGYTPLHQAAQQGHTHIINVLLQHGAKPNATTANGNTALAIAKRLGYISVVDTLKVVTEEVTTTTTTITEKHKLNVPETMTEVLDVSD", "test": "ITC"}, "[5]": {"molecular_target": "T5, AnkG 38–903 (MBD + AI-c + AI-b) (rat, UniProt O70511-1 38-903)", "T5 chain": "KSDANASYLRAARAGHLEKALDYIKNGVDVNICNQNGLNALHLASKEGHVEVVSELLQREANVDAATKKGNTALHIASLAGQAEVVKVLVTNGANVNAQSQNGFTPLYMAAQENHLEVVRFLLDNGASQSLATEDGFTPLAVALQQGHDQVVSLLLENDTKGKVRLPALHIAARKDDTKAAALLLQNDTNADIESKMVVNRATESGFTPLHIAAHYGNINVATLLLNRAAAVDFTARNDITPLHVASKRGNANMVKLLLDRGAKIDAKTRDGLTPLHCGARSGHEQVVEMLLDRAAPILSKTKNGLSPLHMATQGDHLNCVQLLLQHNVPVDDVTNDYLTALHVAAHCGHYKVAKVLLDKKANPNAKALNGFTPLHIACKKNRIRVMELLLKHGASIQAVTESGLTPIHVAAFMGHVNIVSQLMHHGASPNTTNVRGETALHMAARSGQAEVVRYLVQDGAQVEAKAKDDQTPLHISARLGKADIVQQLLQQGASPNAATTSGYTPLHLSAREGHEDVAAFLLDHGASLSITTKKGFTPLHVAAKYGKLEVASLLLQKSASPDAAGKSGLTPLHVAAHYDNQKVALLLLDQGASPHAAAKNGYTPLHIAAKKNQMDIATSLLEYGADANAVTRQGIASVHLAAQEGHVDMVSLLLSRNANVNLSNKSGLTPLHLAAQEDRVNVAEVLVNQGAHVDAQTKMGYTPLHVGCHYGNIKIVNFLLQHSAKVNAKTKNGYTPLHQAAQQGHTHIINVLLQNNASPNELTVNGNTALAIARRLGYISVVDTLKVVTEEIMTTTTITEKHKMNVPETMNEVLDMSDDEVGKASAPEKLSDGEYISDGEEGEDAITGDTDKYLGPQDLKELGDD", "test": "ITC; too weak to be reliably fit"}, "[6]": {"molecular_target": "T6, AnkG 38–855 (AnkG MBD-AI-c protein; MBD + partial AI-c) (rat, UniProt O70511-1 38-855)", "T6 chain": "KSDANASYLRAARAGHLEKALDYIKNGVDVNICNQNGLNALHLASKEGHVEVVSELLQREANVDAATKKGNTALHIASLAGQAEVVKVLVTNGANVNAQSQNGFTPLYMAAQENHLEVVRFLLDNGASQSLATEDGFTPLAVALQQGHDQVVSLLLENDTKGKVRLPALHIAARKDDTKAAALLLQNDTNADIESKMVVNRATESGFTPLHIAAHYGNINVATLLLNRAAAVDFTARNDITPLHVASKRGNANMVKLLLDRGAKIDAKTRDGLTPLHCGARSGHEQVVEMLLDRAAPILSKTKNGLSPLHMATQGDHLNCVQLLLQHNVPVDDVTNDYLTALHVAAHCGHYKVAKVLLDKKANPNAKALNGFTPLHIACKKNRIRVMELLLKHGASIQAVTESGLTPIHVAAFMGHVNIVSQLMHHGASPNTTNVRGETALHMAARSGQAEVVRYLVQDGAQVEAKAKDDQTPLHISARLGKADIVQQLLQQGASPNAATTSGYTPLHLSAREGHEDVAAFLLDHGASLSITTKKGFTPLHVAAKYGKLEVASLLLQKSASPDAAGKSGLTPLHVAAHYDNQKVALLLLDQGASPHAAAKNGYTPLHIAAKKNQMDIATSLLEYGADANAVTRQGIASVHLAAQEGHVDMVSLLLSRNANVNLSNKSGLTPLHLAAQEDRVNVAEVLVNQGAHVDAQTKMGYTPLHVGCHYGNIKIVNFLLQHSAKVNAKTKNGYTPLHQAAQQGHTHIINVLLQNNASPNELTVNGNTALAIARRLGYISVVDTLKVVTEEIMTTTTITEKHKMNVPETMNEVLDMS", "test": "ITC"}},
  "note": "Numbering of substitutions follows the chain as printed. Where two headings read alike, the source gives them in different places.",
  "data": [
    {"binder": "CADQYWNEVAVIDAIPLAATEHDTMLEMSDMQVWSAGDHPPIVSEEDIS", "note": "[AnkR/B_CT Chimera]", "values": [
      {"measurement": "Kd", "setting": "[1]", "value": 470, "unit": "nM"}
    ]},
    {"binder": "HPPIVSEEDISVG", "note": "[AnkB_AI-a peptide (aa 1623–1635)]", "values": [
      {"measurement": "Kd", "setting": "[2]", "value": 43800, "unit": "nM"}
    ]},
    {"binder": "TEKHKLNVPETMTEVLDVSDEEGDD (domain or fragment)", "note": "[AnkB_AI-c (aa 828–852)]", "values": [
      {"measurement": "Kd", "setting": "[3]", "value": 360, "unit": "nM"},
      {"measurement": "Kd", "setting": "AnkB_MBD Asn595Ala", "value": 2400, "unit": "nM"}
    ]},
    {"binder": "B1", "values": [
      {"measurement": "Kd", "setting": "[4]", "value": 780, "unit": "nM"},
      {"measurement": "Kd", "setting": "[5]", "value": "~45000", "unit": "nM"},
      {"measurement": "Kd", "setting": "[6]", "value": 610, "unit": "nM"}
    ]}
  ]
}
